{"source": "patent US5689048", "key": {"[1]": {"molecular_target": "Mj-AMP2 (Mirabilis jalapa--Antimicrobial Protein 2) (Mirabilis jalapa)"}, "[2]": {"molecular_target": "Mj-AMP1 (Mirabilis jalapa--Antimicrobial Protein 1) (Mirabilis jalapa)"}}}
{"substance": "Chymotrypsin (enzyme)", "values": [{"measurement": "Relative antifungal activity (shown as % of control activity) after Chymotrypsin digestion (% of control activity)", "setting": "[1]", "result": 50}, {"measurement": "Relative antifungal activity (shown as % of control activity) after Chymotrypsin digestion (% of control activity)", "setting": "[2]", "result": 12}]}
{"substance": "Pronase E (enzyme)", "values": [{"measurement": "Relative antifungal activity (shown as % of control activity) after Pronase E digestion (% of control activity)", "setting": "[1]", "result": 25}, {"measurement": "Relative antifungal activity (shown as % of control activity) after Pronase E digestion (% of control activity)", "setting": "[2]", "result": 50}]}
{"substance": "Proteinase K (from UniProt P06873) (enzyme)", "values": [{"measurement": "Relative antifungal activity (shown as % of control activity) after Proteinase K digestion (% of control activity)", "setting": "[1]", "result": 100}, {"measurement": "Relative antifungal activity (shown as % of control activity) after Proteinase K digestion (% of control activity)", "setting": "[2]", "result": 100}]}
{"substance": "Trypsin (enzyme)", "values": [{"measurement": "Relative antifungal activity (shown as % of control activity) after Trypsin digestion (% of control activity)", "setting": "[1]", "result": 100}, {"measurement": "Relative antifungal activity (shown as % of control activity) after Trypsin digestion (% of control activity)", "setting": "[2]", "result": 75}]}
